Results on one molecule are retold here after PMC4625211, “Putative Breast Cancer Driver Mutations in TBX3 Cause Impaired Transcriptional Repression”.

This data set concerns the target T1, GST-TBX3(1-342) TBX3dm (human, UniProt O15119 1-342, G129A;R130S).
T1 sequence: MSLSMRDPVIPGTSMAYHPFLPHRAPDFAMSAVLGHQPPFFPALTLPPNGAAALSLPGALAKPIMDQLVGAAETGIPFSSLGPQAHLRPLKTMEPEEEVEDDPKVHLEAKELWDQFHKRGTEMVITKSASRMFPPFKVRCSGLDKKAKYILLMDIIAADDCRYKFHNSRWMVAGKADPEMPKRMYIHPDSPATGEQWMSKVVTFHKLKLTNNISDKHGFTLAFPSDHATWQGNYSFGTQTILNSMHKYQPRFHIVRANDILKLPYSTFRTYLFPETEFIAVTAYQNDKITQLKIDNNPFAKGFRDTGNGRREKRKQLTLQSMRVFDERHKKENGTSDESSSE
In words: EMSA; 20 mM HEPES (pH not given), 100 mM KCl, 1 mM DTT, 0.25 mM EDTA, 0.01% NP-40, 1 mM MgCl2, 8% glycerol, 100 ug/ml BSA, 1 mg/ml poly(dI-dC), 15 C, 1 h; 6% gel, 1x. Particulars: protein: recombinant; tags: N-terminal GST (pGEX-2TK); label: 5' digoxigenin; blunt; self-complementary palindrome. On the technique in general: Mobility shift assays separate free from complexed probe on a gel.

B1: palindromic Brachyury/T-box consensus oligonucleotide (24 bp) (dsDNA)
DNA 1: AATTTCACACCTAGGTGTGAAATT
DNA 2: AATTTCACACCTAGGTGTGAAATT
As to B1, the binding result was “no binding”.
